US20130225488A1 (CADILA HEALTHCARE, published 2013)
Where no end group is shown, it is not given here. [ ]: non-standard residue; d: D form. αMePhe(2-F) = C[C@](N)(Cc1ccccc1F)C(=O)O

Tests used:
Human GLP-1 receptor = Human GLP-1 receptor (human, UniProt P43220 24-463); experiment: cell-based or functional assay
Human glucagon receptor = Human glucagon receptor (human, UniProt P47871 26-477); experiment: cell-based or functional assay

Human GLP-1 receptor, sequence (P43220 24-463): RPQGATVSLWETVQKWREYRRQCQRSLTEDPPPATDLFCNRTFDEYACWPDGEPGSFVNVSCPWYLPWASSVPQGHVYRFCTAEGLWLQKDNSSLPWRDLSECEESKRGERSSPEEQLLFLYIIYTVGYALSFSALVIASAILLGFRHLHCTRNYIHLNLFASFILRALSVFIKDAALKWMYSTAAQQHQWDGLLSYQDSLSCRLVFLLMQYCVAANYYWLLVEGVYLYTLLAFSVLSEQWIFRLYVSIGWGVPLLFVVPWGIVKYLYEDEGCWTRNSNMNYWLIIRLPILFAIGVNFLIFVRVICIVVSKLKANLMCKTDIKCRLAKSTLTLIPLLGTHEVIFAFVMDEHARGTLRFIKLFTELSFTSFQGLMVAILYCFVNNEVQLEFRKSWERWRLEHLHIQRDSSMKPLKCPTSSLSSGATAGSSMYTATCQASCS

cAMP release, % activity with respect to control; test compound 1 nM (Human GLP-1 receptor) [%]	cAMP release, % activity with respect to control; test compound 10 nM (Human GLP-1 receptor) [%]	cAMP release, % activity with respect to control; test compound 100 nM (Human GLP-1 receptor) [%]	cAMP release, % activity with respect to control; test compound 1 µM (Human GLP-1 receptor) [%]	cAMP release, % activity with respect to control; test compound 10 µM (Human GLP-1 receptor) [%]	cAMP production with saturated glucagon peptide; test compound 1 nM (Human glucagon receptor) [pmol/ml/µg prt]	cAMP production with saturated glucagon peptide; test compound 10 nM (Human glucagon receptor) [pmol/ml/µg prt]	cAMP production with saturated glucagon peptide; test compound 100 nM (Human glucagon receptor) [pmol/ml/µg prt]	cAMP production with saturated glucagon peptide; test compound 10 µM (Human glucagon receptor) [pmol/ml/µg prt]	cAMP production with saturated glucagon peptide; test compound '1 nM' (Human glucagon receptor) [pmol/ml/µg prt]	Binder
99	99	99	99	99	10	8	6	1	4	HXQGTXTSDXX (Aib at 2; α-Me-2F-Phe at 6; Bip(OMe) at 10; Bip(2Me) at 11) [Seq. ID. No. 29: H-Aib-QGT-(α-Me-2F-Phe)-TSD-Bip(OMe)-Bip(2Me)]
99	99	99	99	99	4	2	0	0	0	HXQGTXTSDXX (Aib at 2; α-Me-2F-Phe at 6; Bip(OMe) at 10; Bip(2CF3) at 11; C-terminal amide (CONH2)) [Seq. ID. No. 32: H-Aib-QGT-(α-Me-2F-Phe)-TSD-Bip(OMe)-Bip(2CF3)]
93	99	99	99	99	9	6	5	0	3	HXQGTXTSDXX (Aib at 2; α-Me-2F-Phe at 6; Bip(OMe) at 10; Bip(Pyr) at 11) [Seq. ID. No. 30: H-Aib-QGT-(α-Me-2F-Phe)-TSD-Bip(OMe)-Bip(Pyr)]
41	82	87	95	98	4	2	0	0	0	HSQGTXTSDXX (α-Me-2F-Phe at 6; Bip(OMe) at 10; Bip(2CF3) at 11) [Seq. ID. No. 24: HSQGT-(α-Me-2F-Phe)-TSD-Bip(OMe)-Bip(2CF3)]
93	99	99	99	99	6	5	2	0	0	HXQGTXTSDXX (Aib at 2; α-Me-2F-Phe at 6; Bip(OMe) at 10; Bip(2F) at 11) [Seq. ID. No. 31: H-Aib-QGT-(α-Me-2F-Phe)-TSD-Bip(OMe)-Bip(2F)]
55	88	92	99	99	4	3	0	0	0	HAQGT[αMePhe(2-F)]TSD[Bip(OMe)][Bip(2CF3)] [Seq. ID. No. 28: HAQGT-(α-Me-2F-Phe)-TSD-Bip(OMe)-Bip(2CF3)]
82	87	92	99	99	14	11	7	0	3	HAQGT[αMePhe(2-F)]TSD[Bip(OMe)][Bip(2F)] [Seq. ID. No. 27: HAQGT-(α-Me-2F-Phe)-TSD-Bip(OMe)-Bip(2F)]
99	99	99	99	99	0	0	0	0	0	HXQGTXTSDXX (ACP at 2; α-Me-2F-Phe at 6; Bip(OMe) at 10; Bip(2Me) at 11) [Seq. ID. No. 33: H-(ACP)-QGT-(α-Me-2F-Phe)-TSD-Bip(OMe)-Bip(2Me)]
39	80	86	95	98	19	17	15	12	14	HSQGTXTSDXX (α-Me-2F-Phe at 6; Bip(OMe) at 10; Bip(2Me) at 11) [Seq. ID. No. 21: HSQGT-(α-Me-2F-Phe)-TSD-Bip(OMe)-Bip(2Me)]
38	78	86	95	98	20	18	16	12	14	HSQGTFTSD[Bip(OMe)][Bip(2Me)]-NH2 [Seq. ID. No. 5: HSQGTFTSD-Bip(OMe)-Bip(2Me)]
38	77	85	94	97	18	16	12	6	8	HAQGT[αMePhe(2-F)]TSD[Bip(OMe)][Bip(2Me)] [Seq. ID. No. 25: HAQGT-(α-Me-2F-Phe)-TSD-Bip(OMe)-Bip(2Me)]
99	99	99	99	99	0	0	0	0	0	HXQGTXTSDXX (not fully specified; ACP at 2; α-Me-2F-Phe at 6; Bip(OMe) at 10; Bip(Pyr) at 11) [Seq. ID. No. 34: H-(ACP)-QGT-(α-Me-2F-Phe)-TSD-Bip(OMe)-Bip(Pyr)]
46	85	90	99	99	4	2	2	0	0	HSQGTXTSDXX (α-Me-2F-Phe at 6; Bip(OMe) at 10; Bip(2F) at 11) [Seq. ID. No. 23: HSQGT-(α-Me-2F-Phe)-TSD-Bip(OMe)-Bip(2F)]
